Reference: US20240117018A1

Columns and labels:
Assay in all cases: cell-based or functional assay
[1] = target: HIV-1 Env of pseudovirus Ce704809221_1B3 (HIV-1)
[2] = target: HIV-1 Env of pseudovirus CNE19 (HIV-1)
[3] = target: HIV-1 Env of pseudovirus TRJO4551.58 (HIV-1)
[4] = target: HIV-1 Env of pseudovirus Du156.12 (HIV-1)
[5] = target: HIV-1 Env of pseudovirus Q23.17 (HIV-1)
[6] = target: HIV-1 Env of pseudovirus CAP45.2.00.G3 (HIV-1)
[7] = target: HIV-1 Env of pseudovirus 246F C1G (HIV-1)
[8] = target: HIV-1 Env of pseudovirus 6240_08_TA5_4622 (HIV-1)
[9] = target: HIV-1 Env of pseudovirus QH0692.42 (HIV-1)
[10] = target: HIV-1 Env of pseudovirus Q461.e2 (HIV-1)
[11] = target: HIV-1 Env of pseudovirus CNE30 (HIV-1)
[12] = target: HIV-1 Env of pseudovirus CNE17 (HIV-1)
[13] = target: HIV-1 Env of pseudovirus CNE8 (HIV-1)
[14] = target: HIV-1 Env of pseudovirus 249M B10 (HIV-1)
[15] = target: HIV-1 Env of pseudovirus 7030102001E5(Rev-) (HIV-1)
[16] = target: HIV-1 Env of pseudovirus SC422661.8 (HIV-1)
[17] = target: HIV-1 Env of pseudovirus Ce0682_E4 (HIV-1)
[18] = target: HIV-1 Env of pseudovirus T250-4 (HIV-1)
[19] = target: HIV-1 Env of pseudovirus 1056_10_TA11_1826 (HIV-1)
[20] = target: HIV-1 Env of pseudovirus 0260.v5.c36 (HIV-1)
[21] = target: HIV-1 Env of pseudovirus SC05_8C11_2344 (HIV-1)
[22] = target: HIV-1 Env of pseudovirus BF1266.431a (HIV-1)
[23] = target: HIV-1 Env of pseudovirus PVO.4 (HIV-1)
[24] = target: HIV-1 Env of pseudovirus CNE5 (HIV-1)
[25] = target: HIV-1 Env of pseudovirus HIV-001428-2.42 (HIV-1)
[26] = target: HIV-1 Env of pseudovirus THRO4156.18 (HIV-1)
[27] = target: HIV-1 Env of pseudovirus Ce1172_H1 (HIV-1)
[28] = target: HIV-1 Env of pseudovirus Ce1086_B2 (HIV-1)
[29] = target: HIV-1 Env of pseudovirus ZM249M.PL1 (HIV-1)
[30] = target: HIV-1 Env of pseudovirus CNE21 (HIV-1)
[31] = target: HIV-1 Env of pseudovirus HIV-16845-2.22 (HIV-1)
[32] = target: HIV-1 Env of pseudovirus Q259.d2.17 (HIV-1)
[33] = target: HIV-1 Env of pseudovirus CAP210.2.00.E8 (HIV-1)
[34] = target: HIV-1 Env of pseudovirus 6535.3 (HIV-1)
[35] = target: HIV-1 Env of pseudovirus 1006_11_C3_1601 (HIV-1)

PGT151 (antibody)
neutralization IC50 [1]: > 50 µg/mL | neutralization IC80 [1]: > 50 µg/mL | neutralization IC50 [2]: 0.014 µg/mL | neutralization IC80 [2]: > 50 µg/mL | neutralization IC50 [3]: 0.496 µg/mL | neutralization IC80 [3]: 4.22 µg/mL | neutralization IC50 [4]: 0.005 µg/mL | neutralization IC80 [4]: 0.023 µg/mL | neutralization IC50 [5]: 0.007 µg/mL | neutralization IC80 [5]: 0.045 µg/mL | neutralization IC50 [6]: 0.007 µg/mL | neutralization IC80 [6]: > 50 µg/mL | neutralization IC50 [7]: > 50 µg/mL | neutralization IC80 [7]: > 50 µg/mL | neutralization IC50 [8]: 0.046 µg/mL | neutralization IC80 [8]: 0.42 µg/mL | neutralization IC50 [9]: 0.029 µg/mL | neutralization IC80 [9]: 0.522 µg/mL | neutralization IC50 [10]: 12.6 µg/mL | neutralization IC80 [10]: > 50 µg/mL | neutralization IC50 [11]: > 50 µg/mL | neutralization IC80 [11]: > 50 µg/mL | neutralization IC50 [12]: 0.093 µg/mL | neutralization IC80 [12]: > 50 µg/mL | IC50 (Titer in TZM.bl cells) [13]: > 50 µg/mL | IC80 (Titer in TZM.bl cells) [13]: > 50 µg/mL | neutralization IC50 [14]: 0.007 µg/mL | neutralization IC80 [14]: 0.023 µg/mL | neutralization IC50 [15]: 0.001 µg/mL | neutralization IC80 [15]: 0.011 µg/mL | neutralization IC50 [16]: 0.005 µg/mL | neutralization IC80 [16]: 0.028 µg/mL | neutralization IC50 [17]: > 50 µg/mL | neutralization IC80 [17]: > 50 µg/mL | neutralization IC50 [18]: 0.005 µg/mL | neutralization IC80 [18]: 0.014 µg/mL | neutralization IC50 [19]: 0.008 µg/mL | neutralization IC80 [19]: 0.048 µg/mL | neutralization IC50 [20]: 0.427 µg/mL | neutralization IC80 [20]: > 50 µg/mL | neutralization IC50 [21]: 0.06 µg/mL | neutralization IC80 [21]: > 50 µg/mL | neutralization IC50 [22]: > 50 µg/mL | neutralization IC80 [22]: > 50 µg/mL | neutralization IC50 [23]: 0.017 µg/mL | neutralization IC80 [23]: > 50 µg/mL | IC50 (Titer in TZM.bl cells) [24]: > 50 µg/mL | IC80 (Titer in TZM.bl cells) [24]: > 50 µg/mL | neutralization IC50 [25]: 0.027 µg/mL | neutralization IC80 [25]: > 50 µg/mL | neutralization IC50 [26]: > 50 µg/mL | neutralization IC80 [26]: > 50 µg/mL | neutralization IC50 [27]: > 50 µg/mL | neutralization IC80 [27]: > 50 µg/mL | neutralization IC50 [28]: 2.65 µg/mL | neutralization IC80 [28]: > 50 µg/mL | neutralization IC50 [29]: 0.004 µg/mL | neutralization IC80 [29]: 0.015 µg/mL | neutralization IC50 [30]: 0.004 µg/mL | neutralization IC80 [30]: 0.012 µg/mL | neutralization IC50 [31]: > 50 µg/mL | neutralization IC80 [31]: > 50 µg/mL | neutralization IC50 [32]: > 50 µg/mL | neutralization IC80 [32]: > 50 µg/mL | neutralization IC50 [33]: 0.01 µg/mL | neutralization IC80 [33]: 0.208 µg/mL | neutralization IC50 [34]: < 0.001 µg/mL | neutralization IC80 [34]: 0.012 µg/mL | neutralization IC50 [35]: 2.89 µg/mL | neutralization IC80 [35]: > 50 µg/mL

PGT145 (antibody)
neutralization IC50 [1]: 0.102 µg/mL | neutralization IC80 [1]: 0.71 µg/mL | neutralization IC50 [2]: 0.103 µg/mL | neutralization IC80 [2]: 1.13 µg/mL | neutralization IC50 [3]: > 50 µg/mL | neutralization IC80 [3]: > 50 µg/mL | neutralization IC50 [4]: 0.001 µg/mL | neutralization IC80 [4]: 0.018 µg/mL | neutralization IC50 [5]: 1.32 µg/mL | neutralization IC80 [5]: > 50 µg/mL | neutralization IC50 [6]: 0.001 µg/mL | neutralization IC80 [6]: 0.007 µg/mL | neutralization IC50 [7]: > 50 µg/mL | neutralization IC80 [7]: > 50 µg/mL | neutralization IC50 [8]: > 50 µg/mL | neutralization IC80 [8]: > 50 µg/mL | neutralization IC50 [9]: > 50 µg/mL | neutralization IC80 [9]: > 50 µg/mL | neutralization IC50 [10]: 7.8 µg/mL | neutralization IC80 [10]: > 50 µg/mL | neutralization IC50 [11]: > 50 µg/mL | neutralization IC80 [11]: > 50 µg/mL | neutralization IC50 [12]: 0.091 µg/mL | neutralization IC80 [12]: 1.16 µg/mL | IC50 (Titer in TZM.bl cells) [13]: 0.272 µg/mL | IC80 (Titer in TZM.bl cells) [13]: 2.24 µg/mL | neutralization IC50 [14]: 0.947 µg/mL | neutralization IC80 [14]: 41.3 µg/mL | neutralization IC50 [15]: > 50 µg/mL | neutralization IC80 [15]: > 50 µg/mL | neutralization IC50 [16]: 0.024 µg/mL | neutralization IC80 [16]: 0.082 µg/mL | neutralization IC50 [17]: 33.6 µg/mL | neutralization IC80 [17]: > 50 µg/mL | neutralization IC50 [18]: 0.002 µg/mL | neutralization IC80 [18]: 0.039 µg/mL | neutralization IC50 [19]: 0.23 µg/mL | neutralization IC80 [19]: 0.938 µg/mL | neutralization IC50 [20]: > 50 µg/mL | neutralization IC80 [20]: > 50 µg/mL | neutralization IC50 [21]: 0.093 µg/mL | neutralization IC80 [21]: 0.248 µg/mL | neutralization IC50 [22]: 1.34 µg/mL | neutralization IC80 [22]: 18.5 µg/mL | neutralization IC50 [23]: 0.192 µg/mL | neutralization IC80 [23]: 0.87 µg/mL | IC50 (Titer in TZM.bl cells) [24]: 0.001 µg/mL | IC80 (Titer in TZM.bl cells) [24]: 0.013 µg/mL | neutralization IC50 [25]: 0.001 µg/mL | neutralization IC80 [25]: 0.083 µg/mL | neutralization IC50 [26]: 0.01 µg/mL | neutralization IC80 [26]: 0.029 µg/mL | neutralization IC50 [27]: 0.26 µg/mL | neutralization IC80 [27]: 2.06 µg/mL | neutralization IC50 [28]: > 50 µg/mL | neutralization IC80 [28]: > 50 µg/mL | neutralization IC50 [29]: 1.44 µg/mL | neutralization IC80 [29]: > 50 µg/mL | neutralization IC50 [30]: < 0.001 µg/mL | neutralization IC80 [30]: 0.009 µg/mL | neutralization IC50 [31]: > 50 µg/mL | neutralization IC80 [31]: > 50 µg/mL | neutralization IC50 [32]: 44.2 µg/mL | neutralization IC80 [32]: > 50 µg/mL | neutralization IC50 [33]: 37.8 µg/mL | neutralization IC80 [33]: > 50 µg/mL | neutralization IC50 [34]: > 50 µg/mL | neutralization IC80 [34]: > 50 µg/mL | neutralization IC50 [35]: > 50 µg/mL | neutralization IC80 [35]: > 50 µg/mL
